Assay results reported in patent US20150374698A1.

Target: AVP V1A receptor (mouse) (UniProt Q62463)
Assay: cell-based or functional assay

Chain of AVP V1A receptor (mouse) (Q62463 whole entry): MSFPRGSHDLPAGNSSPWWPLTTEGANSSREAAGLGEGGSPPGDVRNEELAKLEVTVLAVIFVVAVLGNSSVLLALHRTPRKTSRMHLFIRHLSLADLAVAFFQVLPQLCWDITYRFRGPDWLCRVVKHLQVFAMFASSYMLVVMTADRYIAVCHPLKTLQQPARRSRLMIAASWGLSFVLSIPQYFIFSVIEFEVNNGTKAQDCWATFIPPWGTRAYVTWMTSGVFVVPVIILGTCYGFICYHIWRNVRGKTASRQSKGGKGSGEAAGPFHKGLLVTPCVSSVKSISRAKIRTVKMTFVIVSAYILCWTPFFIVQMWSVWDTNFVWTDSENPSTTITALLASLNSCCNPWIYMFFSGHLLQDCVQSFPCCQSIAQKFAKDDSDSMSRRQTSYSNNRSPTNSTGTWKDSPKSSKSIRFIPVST

EC50 of contractile response, 2°-branch mesenteric artery, control mice: 0.57 nM | EC50 of contractile response, 2°-branch mesenteric artery, sRA mice: 15.9 nM | EC50 of contractile response, abdominal aortic rings, control mice: 2.19 nM | EC50 of contractile response, abdominal aortic rings, sRA mice: 3.72 nM | Maximum Response (contraction), 2°-branch mesenteric artery, control mice: 52.5% | Maximum Response (contraction), 2°-branch mesenteric artery, sRA mice: 17.3% | Maximum Response (contraction), abdominal aortic rings, control mice: 0.29 g | Maximum Response (contraction), abdominal aortic rings, sRA mice: 0.12 g
Substance: arginine vasopressin (from UniProt P01185 20-28) (peptide)
